Reference: patent US5656591A, “Antimicrobial agents and method for treating products therewith” (Morinaga Milk Industry Co., Ltd., priority 1992, dated 1997)

Assays:
[1] = test system: microorganisms belonging to the genera of Staphylococcus and Enterococcus; conditions: Journal of Dairy Science, Vol. 67, page 606, 1984; cited from earlier work
[2] = test system: Staphylococcus aureus (JCM-2151); assay: Viability assay (survival rate) in cow's milk medium; assay type: cell-based
Protocol: The colonies grown on the culture medium were scraped by a platinum loop and cultivated in 1% peptone (by Difco Company) culture medium for several hours at 37° C., and the resultant microbial culture at logarithmic phase was used as the preculture in a serial concentration of 3×10^8 /ml.
A quantity of the resultant solutions of the samples were selectively mixed with a quantity of the basal medium, thereby test media for the respective tests were prepared in the combinations and eventual concentrations as specified in the respective tests.
Utilizing the samples (5), (7), (8), (9), (10), (14), (15), (17), (18) and (19), test media were prepared in the same manner as in the preparation of the test media containing sample (3) and the like, except that the aqueous solution (in the cases of samples (5) and (7), aqueous suspensions) were not dealt with sterilization filters.
To 2 ml aliquots of test media prepared in (3-1) (supra), […] aliquots of the preculture of Staphylococcus aureus prepared in (1) (2. Method, supra) were added, then incubated at 37° C. for 1 hour, 200 μl aliquots of the resultant cultures were taken out and diluted with 1% peptone solution in a series of 10^n respectively, 110 μl aliquots of the resultant dilution series were spread onto plates of standard agar culture medium, and after incubation at 37° C. for 24 hours the number of colonies grown on the plates were counted (Test. Colony Count).
Control coloney counts 1 were determined in the same manner as in the determination of the test coloney counts, except that […] aliquots of the preculture of Staphylococcus aureus prepared in (1) (2. Method, supra) were added to 2 ml aliquots of the respective control media 1 prepared in (3-2) (supra). Furthermore, control coloney counts 2 were determined in the same manner as in the determination of the test coloney counts, except that […] aliquots of the preculture of Staphylococcus aureus prepared in (1) (supra) were added to 2 ml aliquots of the respective control media 1 prepared in (3-2) (supra).
Survival rate 1=(Test Colony Count/Control Colony Count 1)×100
Survival rate 2=(Control Colony Count 2/Control Colony Count 1)×100
(Note: In the tables shown hereinafter, vulues of survival rate 2 are indicated in the row where the concentration of antimicrobial peptide or lactoferrin hydrolysate is 0.)

B1: lactoferrin: Bovine lactoferrin on the market (by Sigma Company) (protein)
chain: APRKNVRWCTISQPEWFKCRRWQWRMKKLGAPSITCVRRAFALECIRAIAEKKADAVTLDGGMVFEAGRDPYKLRPVAAEIYGTKESPQTHYYAVAVVKKGSNFQLDQLQGRKSCHTGLGRSAGWIIPMGILRPYLSWTESLEPLQGAVAKFFSASCVPCIDRQAYPNLCQLCKGEGENQCACSSREPYFGYSGAFKCLQDGAGDVAFVKETTVFENLPEKADRDQYELLCLNNSRAPVDAFKECHLAQVPSHAVVARSVDGKEDLIWKLLSKAQEKFGKNKSRSFQLFGSPPGQRDLLFKDSALGFLRIPSKVDSALYLGSRYLTTLKNLRETAEEVKARYTRVVWCAVGPEEQKKCQQWSQQSGQNVTCATASTTDDCIVLVLKGEADALNLDGGYIYTAGKCGLVPVLAENRKSSKHSSLDCVLRPTEGYLAVAVVKKANEGLTWNSLKDKKSCHTAVDRTAGWNIPMGLIVNQTGSCAFDEFFSQSCAPGADPKSRLCALCAGDDQGLDKCVPNSKEKYYGYTGAFRCLAEDVGDVAFVKNDTVWENTNGESTADWAKNLNREDFRLLCLDGTRKPVTEAQSCHLAVAPNHAVVSRSDRAAHVKQVLLHQQALFGKNGKNCPDKFCLFKSETKNLLFNDNTECLAKLGGRPTYEEYLGTEYVTAIANLKKCSTSPLLEACAFLTR
concentration in which lactoferrin exhibits antimicrobial activity [1]: 0.5 to 80 mg/mL
survival rate ([2]; Test 1: peptide 0, lactoferrin 0.1 mg/ml): 150
survival rate ([2]; Test 1: peptide 0, lactoferrin 1 mg/ml): 150
survival rate ([2]; Test 1: peptide 0, lactoferrin 10 mg/ml): 104
survival rate ([2]; Test 20: peptide 0, 1-monolauroyl-rac-glycerol 0, bovine lactoferrin 1 mg/ml): 105%
antimicrobial activity of the compound added without antimicrobial peptide or lactoferrin hydrolysate (in words) ([2]; compound alone): no antimicrobial activity was observed
effect of the coexisting compound on the antimicrobial activity of the antimicrobial peptide (in words) ([2]; with antimicrobial peptide Seq. ID No. 26): augments the antimicrobial activity of the peptide
effect of the coexisting compound on the antimicrobial activity of the antimicrobial peptide (in words) ([2]; with antimicrobial peptide Seq. ID No. 27): further augments the antimicrobial activity of the antimicrobial peptides
